Residue numbers refer to the chain shown, from its start.
T1: recombinant human OX40 (R&D #1493-CD) (human, UniProt P43489 29-216, limits assumed)
T1 sequence (looked up): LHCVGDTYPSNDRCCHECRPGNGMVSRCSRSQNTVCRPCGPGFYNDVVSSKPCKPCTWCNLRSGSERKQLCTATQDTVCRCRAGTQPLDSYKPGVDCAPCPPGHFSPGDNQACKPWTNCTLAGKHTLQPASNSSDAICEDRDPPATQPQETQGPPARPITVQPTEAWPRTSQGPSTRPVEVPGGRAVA

B1: 1200/1201 (antibody, V domains shown)
VH: EVQLLESGGGLVQPGGSLRLSCAASGFTFSSYAMSWVRQAPGKGLEWVSGISGGGGGTYYADSVKGRFTISRDNSKNTLYLQMNSLRAEDTAVYYCARDVAYFDYWGQGTLVTVSS
VL: DIQMTQSPSSLSASVGDRVTITCRASQSISSYLNWYQQKPGKAPKLLIYAASSLQSGVPSRFSGSGSGTDFTLTISSLQPEDFATYYCQQYYIPHTFGQGTKLEIK
B2: 1204/1205 (antibody, V domains shown)
VH: EVQLLESGGGLVQPGGSLRLSCAASGFTFSSYYMGWVRQAPGKGLEWVSGIGSYYGYTGYADSVKGRFTISRDNSKNTLYLQMNSLRAEDTAVYYCARAYYDYNYYYAYFDYWGQGTLVTVSS
VL: DIQMTQSPSSLSASVGDRVTITCRASQSISSYLNWYQQKPGKAPKLLIYAASSLQSGVPSRFSGSGSGTDFTLTISSLQPEDFATYYCQQSVPHYPFTFGQGTKLEIK
B3: 1620/1621 (antibody, V domains shown)
VH: EVQLLESGGGLVQPGGSLRLSCAASGFTFSGYYMYWVRQAPGKGLEWVSGISSSGSYTYYADSVKGRFTISRDNSKNTLYLQMNSLRAEDTAVYYCARSVGPYFDYWGQGTLVTVSS
VL: B1 VL with Y91G, Y92V, I93G, H95Y
B4: 1626/1627 (antibody, V domains shown)
VH: EVQLLESGGGLVQPGGSLRLSCAASGFTFGGYSMYWVRQAPGKGLEWVSSIGGYYYSTYYADSVKGRFTISRDNSKNTLYLQMNSLRAEDTAVYYCARSYYGSIDYWGQGTLVTVSS
VL: B2 VL with S91G, V92T, P93G, H94Y, Y95G, F97L

Each binder was assayed against T2, human CD137 on transfected CHO cells (human, UniProt Q07011 24-186; P25942 194-277, limits assumed) (assay: flow cytometry, CHO-huCD137; 95% CI of EC50).
T2 construct: extracellular domain;domain: transmembrane and intracellular part; also called CHO-huCD137; CHOhCD137
Protocol: Binding and EC50 was determined using flow cytometric analysis of CHO cells transfected with human CD137, cynomolgus CD137 or empty vector. The extracellular part of human or cynomolgus CD137 was fused to the transmembrane and intracellular part of human CD40 and cloned into pcDNA3.1. The vector was subsequently stably transfected into CHO cells. […] CD137-transfected and empty vector-transfected cells were incubated with CD137 antibodies for at least 1h at 4° C. to saturate the binding. In order to minimize antibody internalization, 0.05% sodium azide was used in the incubation buffer and all work was performed on ice. […] Directly after staining the cells were fixed with a paraformaldehyde solution (10x concentrate BD CellFIX, BD biosciences #340181). Cells were analyzed by flow cytometry using FACSVerse (BD Biosciences). The median fluorescence intensity (MFI) for each sample was determined and the dose response data was analysed using Graph Pad Prism.
MFI data was normalized for each antibody, where 0% is defined as the lowest value and 100% is the highest value in the dose titration for each antibody.

T2 sequence (Q07011 other isoform, or with tags, fused parts or gaps limits assumed): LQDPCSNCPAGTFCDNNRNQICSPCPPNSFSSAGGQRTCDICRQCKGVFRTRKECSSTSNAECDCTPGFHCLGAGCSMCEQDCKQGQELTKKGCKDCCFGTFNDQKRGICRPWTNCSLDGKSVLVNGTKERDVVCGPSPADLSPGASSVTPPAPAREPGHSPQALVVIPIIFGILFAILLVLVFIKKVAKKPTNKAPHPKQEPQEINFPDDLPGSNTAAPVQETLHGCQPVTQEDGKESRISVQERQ

Row | Binder | EC50
1 | B1 | 0.2 to 0.36 µg/mL

Each binder was assayed against T3, full-length human CD137 construct 1030 (human, UniProt Q07011 24-255) (assay: flow cytometry, 293-F cells with full-length CD137 (reference of the normalization)).
T3 construct: whole, on cells; on transfected FreeStyle 293-F cells; also called Full-length CD137
Protocol: (§1) The ability of each antibody to bind to a panel of human/mouse CD137 chimeras expressed on the surface of transfected cells was analyzed by flow cytometry.
(§2) The chimeras were designed by exchanging domains or modules of the human CD137 with the corresponding mouse domain (FIG. 7). Genes of CD137 human/mouse chimeras were synthesized (GenScript) and constructs cloned into pcDNA3.1 vector (Invitrogen) and transiently transfected into FreeStyle 293-F cells (Invitrogen). The transfected cells were incubated with CD137 antibodies and control antibodies, followed by incubation with anti-human IgG-PE (Jackson Immunoresearch) for detection and analyzed with FACS Verse (BD Biosciences). Binding to the different chimeric constructs was calculated as relative MFI compared to the binding of the isotype control, followed by normalization to the full-length human CD137 construct to minimize the effect of affinity differences between individual antibodies.

T3 sequence (Q07011 24-255): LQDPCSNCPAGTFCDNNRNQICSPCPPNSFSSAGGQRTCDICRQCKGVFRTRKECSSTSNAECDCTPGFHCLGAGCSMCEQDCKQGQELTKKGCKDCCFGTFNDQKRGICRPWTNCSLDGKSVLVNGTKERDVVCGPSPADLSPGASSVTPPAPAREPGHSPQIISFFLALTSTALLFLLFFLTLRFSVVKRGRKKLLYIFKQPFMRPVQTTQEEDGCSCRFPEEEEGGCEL

Row | Binder | MFI/isotype control normalized to full-length human CD137
2 | B1 | 1

These binders were tested against T4, recombinant human CD137-Fc (R&D #838-4B) (human, UniProt Q07011 24-186) (assay: ELISA, coated CD137-Fc).
T4 construct: bought; also called CD137 (R&D #838-4B); not shown: Fc part, bought reagent, not described
Protocol: Binding of CD137 antibodies to recombinant human CD137 was determined by sandwich ELISA. Briefly, ELISA plates (Greiner #655074) coated with recombinant human CD137-Fc (R&D #838-4B) were incubated with serial dilutions of the various CD137 antibodies to be investigated. CD137 antibodies were detected using HRP-conjugated goat-anti-human kappa light chain (AbD Serotec #STAR127P) and developed with SuperSignal ELISA Pico Chemiluminescent substrate (Pierce #37069). EC50 values of the various antibodies were determined in 2-6 separate experiments.

T4 sequence (Q07011 24-186 limits assumed): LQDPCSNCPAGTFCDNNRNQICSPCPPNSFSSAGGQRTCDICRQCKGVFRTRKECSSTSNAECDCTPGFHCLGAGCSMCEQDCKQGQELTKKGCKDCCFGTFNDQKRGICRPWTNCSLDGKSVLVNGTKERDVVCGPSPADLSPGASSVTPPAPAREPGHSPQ

Row | Binder | EC50
3 | B1 | 0.39 nM

What follows are binders tested against T1, recombinant human OX40 (R&D #1493-CD) (assay: ELISA, coated OX40).
Protocol: (§3) ELISA plates (Greiner #655074) were coated with 50 μl/well of recombinant human OX40 (R&D #1493-CD), CD40-Fc (Ancell #504-820) or CD137 (R&D #838-4B) diluted to a final concentration of 0.5 μg/ml in PBS for 1h at 37° C. or overnight at 4° C. Plates were washed with PBS+0.05% TWEEN20 (PBST), followed by block with PBST+1% bovine serum albumin (BSA). Antibody samples were prepared as serial 1/10 dilutions from 10-0.01 μg/ml in PBST+1% BSA and incubated for 1 h in room temperature, followed by detection using a horse radish peroxidase-conjugated anti-human kappa light chain antibody (AbD Serotec #STAR127P) and developed using SuperSignal ELISA Pico Chemiluminescent substrate (Pierce ThermoScientific #37069).

Row | Binder | binding result
4 | B1 | no binding (tested: 10 µg/ml)
5 | B2 | no binding (tested: 10 µg/ml)
6 | B3 | no binding (tested: 10 µg/ml)
7 | B4 | no binding (tested: 10 µg/ml)

These binders were tested against T5, CD40-Fc (Ancell #504-820) (human, UniProt P25942 21-193) (assay: ELISA, coated CD40-Fc).
T5 construct: not shown: Fc part, bought reagent, not described
Protocol: as §3

T5 sequence (P25942 21-193 limits assumed): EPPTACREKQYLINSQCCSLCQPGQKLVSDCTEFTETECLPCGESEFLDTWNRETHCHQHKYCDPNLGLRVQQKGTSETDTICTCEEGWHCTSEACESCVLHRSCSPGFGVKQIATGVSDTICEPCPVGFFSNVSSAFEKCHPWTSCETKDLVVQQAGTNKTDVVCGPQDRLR

Row | Binder | binding result
8 | B1 | no binding (tested: 10 µg/ml)
9 | B2 | no binding (tested: 10 µg/ml)
10 | B3 | no binding (tested: 10 µg/ml)
11 | B4 | no binding (tested: 10 µg/ml)

These binders were tested against T6, human/mouse CD137 chimera 1552 (assay: flow cytometry, 293-F cells with CD137 chimera).
T6 construct: on transfected FreeStyle 293-F cells
Protocol: as §1, §2

Row | Binder | MFI/isotype control normalized to full-length human CD137
12 | B1 | 0.05
13 | B2 | 0.13
14 | B3 | 0.18
15 | B4 | 0.11

The binders below were run against T7, human/mouse CD137 chimera 1554 (assay: flow cytometry, 293-F cells with CD137 chimera).
T7 construct: on transfected FreeStyle 293-F cells
Protocol: as §1, §2

Row | Binder | MFI/isotype control normalized to full-length human CD137
16 | B1 | 0.84
17 | B2 | 0.73
18 | B3 | 0.17
19 | B4 | 0.12

What follows are binders tested against T8, human/mouse CD137 chimera 1551 (assay: flow cytometry, 293-F cells with CD137 chimera).
T8 construct: on transfected FreeStyle 293-F cells
Protocol: as §1, §2

Row | Binder | MFI/isotype control normalized to full-length human CD137
20 | B1 | 0.04
21 | B2 | 0.11
22 | B3 | 0.33
23 | B4 | 0.11

What follows are binders tested against T9, human/mouse CD137 chimera 1553 (assay: flow cytometry, 293-F cells with CD137 chimera).
T9 construct: on transfected FreeStyle 293-F cells
Protocol: as §1, §2

Row | Binder | MFI/isotype control normalized to full-length human CD137
24 | B1 | 0.65
25 | B2 | 0.85
26 | B3 | 0.17
27 | B4 | 0.14

The binders below were run against T10, human/mouse CD137 chimera 1550 (assay: flow cytometry, 293-F cells with CD137 chimera).
T10 construct: on transfected FreeStyle 293-F cells
Protocol: as §1, §2

Row | Binder | MFI/isotype control normalized to full-length human CD137
28 | B1 | 0.05
29 | B2 | 0.07
30 | B3 | 0.17
31 | B4 | 0.1

Each binder was assayed against T11, human/mouse CD137 chimera 1555 (assay: flow cytometry, 293-F cells with CD137 chimera).
T11 construct: on transfected FreeStyle 293-F cells
Protocol: as §1, §2

Row | Binder | MFI/isotype control normalized to full-length human CD137
32 | B1 | 0.24
33 | B2 | 0.28
34 | B3 | 0.32
35 | B4 | 0.29
